From the supplement of paper PMC7125110
± gives the standard error. For part of these data: This sample holds only a part of the variants without activity.

B1: glmS ribozyme (parent)
chain: AUAAAAGCGCCAGAACUACAGAAAUGUAGUUGACGAGGAGGAGGUUUAUCGAAUUUUCGGCGGAUGCCUCCAAA

Experiments:
Conditions in all cases: with glucosamine-6-phosphate
glucosamine-6-phosphate [1] = variants of: B1; assay: kcat; higher = faster cleavage; RNA array
How it was run: (§1)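 Over ~14 h at 37 °C, tiles were imaged as glucosamine-6-phosphate (40 μM to 10 mM) in HEPES/KCl/Mg(OAc)2 buffer flowed across sequenced MiSeq chips. The chips carried barcoded ribozyme variants transcribed in situ by E. coli RNA polymerase and tracked with a hybridised Cy3 probe. After normalisation to baseline and to non-cleaving reference variants, one- or two-exponential decay fits of per-tile medians gave kobs. kcat and KM followed from weighted Michaelis–Menten fits across concentrations.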

glucosamine-6-phosphate [2] = variants of: B1; assay: KM; higher = weaker cofactor use; RNA array
How it was run: as §1

glucosamine-6-phosphate [3] = variants of: B1; assay: self-cleavage kobs at 2500 uM GlcN6P; higher = faster cleavage; RNA array
How it was run: as §1

glucosamine-6-phosphate [4] = variants of: B1; assay: self-cleavage kobs at 10000 uM GlcN6P; higher = faster cleavage; RNA array
How it was run: as §1

glucosamine-6-phosphate [5] = variants of: B1; assay: self-cleavage kobs at 40 uM GlcN6P; higher = faster cleavage; RNA array
How it was run: as §1

glucosamine-6-phosphate [6] = variants of: B1; assay: self-cleavage kobs at 160 uM GlcN6P; higher = faster cleavage; RNA array
How it was run: as §1

glucosamine-6-phosphate [7] = variants of: B1; assay: self-cleavage kobs at 640 uM GlcN6P; higher = faster cleavage; RNA array
How it was run: as §1

| Variant | kcat (glucosamine-6-phosphate [1]) [s⁻¹] | KM (glucosamine-6-phosphate [2]) [µM] | self-cleavage kobs at 2500 uM GlcN6P (glucosamine-6-phosphate [3]) [s⁻¹] | self-cleavage kobs at 10000 uM GlcN6P (glucosamine-6-phosphate [4]) [s⁻¹] | self-cleavage kobs at 40 uM GlcN6P (glucosamine-6-phosphate [5]) [s⁻¹] | self-cleavage kobs at 160 uM GlcN6P (glucosamine-6-phosphate [6]) [s⁻¹] | self-cleavage kobs at 640 uM GlcN6P (glucosamine-6-phosphate [7]) [s⁻¹] |
| --- | --- | --- | --- | --- | --- | --- | --- |
| A12C C58U | 0.000159 ± 1.6e-05 | 6360 ± 1200 | 4.66e-05 ± 9.5e-06 | 9.68e-05 ± 1.2e-05 | – | – | – |
| A33U A53U G66A | 7.62e-05 ± 1.7e-06 | – | – | – | – | – | – |
| A14C A48C | 5.79e-05 ± 1.1e-05 | – | 4.95e-05 ± 1.2e-05 | 4.92e-05 ± 1.2e-05 | – | – | – |
| U65G G66U | 0.00147 ± 0.00011 | 2310 ± 320 | 0.000789 ± 0.0001 | 0.00117 ± 0.00012 | 1.83e-05 ± 8e-06 | 9.38e-05 ± 2.2e-05 | 0.000342 ± 5.3e-05 |
| U30C G62U | < 1e-05 | – | – | < 1e-05 | – | < 1e-05 | – |
| A53U C58G | 9.99e-05 ± 7.2e-06 | 1390 ± 370 | 7.16e-05 ± 1e-05 | 8.57e-05 ± 8e-06 | – | – | 2.6e-05 ± 9.5e-06 |
| U54G U57A | 0.000134 ± 2.6e-05 | 1540 ± 760 | 0.000118 ± 3.3e-05 | 0.00011 ± 2.1e-05 | – | – | 3.49e-05 ± 1.2e-05 |
| U49A C67A | 1.28e-05 ± 1.6e-06 | – | – | – | – | – | – |
| A12C C16A | 0.00127 ± 0.00038 | 4920 ± 2400 | 0.000339 ± 5.1e-05 | 0.000927 ± 9.9e-05 | – | 6.12e-05 ± 1.6e-05 | 0.000172 ± 2.7e-05 |
| U45A U56C | 0.00585 ± 0.0022 | 3070 ± 1400 | 0.00259 ± 0.00069 | 0.00411 ± 0.00072 | 7.22e-05 ± 1e-05 | 0.000234 ± 3.5e-05 | 0.0014 ± 0.00014 |
| C67G U69G | < 1e-05 | – | – | < 1e-05 | – | < 1e-05 | – |
| U49G U55G | 0.000836 ± 7.3e-05 | 1400 ± 250 | 0.000582 ± 6.3e-05 | 0.000687 ± 9.4e-05 | – | 8.7e-05 ± 1.8e-05 | 0.000247 ± 5e-05 |
| A14U A48U | 0.000103 ± 7.3e-06 | 9240 ± 1300 | – | 5.37e-05 ± 9.7e-06 | – | – | – |
| A12U G40C | 0.00584 ± 0.0009 | 1420 ± 310 | 0.00529 ± 0.0011 | 0.00509 ± 0.00057 | 0.000175 ± 2e-05 | 0.000567 ± 9.5e-05 | 0.0014 ± 0.00029 |
| G43C U45G | 0.00237 ± 0.00082 | – | 0.00109 ± 0.00024 | 0.00211 ± 0.00027 | 8.35e-05 ± 1.2e-05 | 0.000135 ± 2.3e-05 | 0.000694 ± 0.00012 |
| G13U A14C | 0.00021 ± 2.8e-05 | 8960 ± 1900 | 4.71e-05 ± 9.7e-06 | 0.00011 ± 2e-05 | – | – | – |
| C8U G35A U45A U69G | 1.02e-05 ± 2.7e-06 | – | – | – | – | – | – |

| Variant | kcat (glucosamine-6-phosphate [1]) [s⁻¹] | KM (glucosamine-6-phosphate [2]) [µM] | self-cleavage kobs at 2500 uM GlcN6P (glucosamine-6-phosphate [3]) [s⁻¹] | self-cleavage kobs at 10000 uM GlcN6P (glucosamine-6-phosphate [4]) [s⁻¹] | self-cleavage kobs at 40 uM GlcN6P (glucosamine-6-phosphate [5]) [s⁻¹] | self-cleavage kobs at 160 uM GlcN6P (glucosamine-6-phosphate [6]) [s⁻¹] | self-cleavage kobs at 640 uM GlcN6P (glucosamine-6-phosphate [7]) [s⁻¹] |
| --- | --- | --- | --- | --- | --- | --- | --- |
| A33U | 0.00014 ± 3.2e-06 | 2770 ± 160 | 6.53e-05 ± 1.2e-06 | 0.000111 ± 1.4e-06 | – | – | 2.78e-05 ± 1.1e-06 |
| A12C U69G | 6.77e-05 ± 5.2e-06 | – | 7.6e-05 ± 9.1e-06 | 5.86e-05 ± 7.7e-06 | – | 5.5e-05 ± 1.2e-05 | 6.7e-05 ± 8.9e-06 |
| C34G U56G C70U | 3.47e-05 ± 8.1e-06 | – | 4.52e-05 ± 2.2e-05 | – | – | – | 3.21e-05 ± 1.5e-05 |
| G66U C70U | 0.00205 ± 0.00047 | 1830 ± 590 | 0.00124 ± 0.00016 | 0.00175 ± 0.00019 | 6.67e-05 ± 8e-06 | 0.000141 ± 1.7e-05 | 0.000507 ± 4.8e-05 |
| G13A G41U | 5.73e-05 ± 8.7e-06 | – | – | – | < 1e-05 | – | – |
| U31A U45G | 0.0028 ± 0.00084 | 1730 ± 710 | 0.00203 ± 0.00033 | 0.00194 ± 0.00049 | 7.39e-05 ± 1.2e-05 | 0.000168 ± 4e-05 | 0.000882 ± 0.00014 |
| A12U A14C | 0.00505 ± 0.0013 | 1630 ± 560 | 0.00261 ± 0.00038 | 0.00546 ± 0.00066 | 0.000142 ± 1.3e-05 | 0.000429 ± 6.9e-05 | 0.00117 ± 0.00016 |
| U31A G66A | 0.0119 ± 0.0032 | 6540 ± 2200 | 0.00305 ± 0.00048 | 0.00767 ± 0.0017 | 0.000105 ± 3.4e-05 | 0.000259 ± 6.1e-05 | 0.00114 ± 0.00021 |
| U65G U69A | 0.000187 ± 3.2e-05 | 1450 ± 480 | 0.000116 ± 2.2e-05 | 0.000174 ± 5.3e-05 | – | – | 5.5e-05 ± 1.2e-05 |
| A39C | 0.00949 ± 0.0017 | 2180 ± 510 | 0.00591 ± 0.00018 | 0.00752 ± 0.00019 | 0.000188 ± 3.3e-06 | 0.000491 ± 1.8e-05 | 0.00208 ± 7.2e-05 |
| A12U G32A | 0.000902 ± 5.6e-05 | 2110 ± 200 | 0.000498 ± 5.1e-05 | 0.000735 ± 0.00013 | – | 6.52e-05 ± 9.5e-06 | 0.000203 ± 2.1e-05 |
| U69A C71A | 2.44e-05 ± 5.9e-06 | – | – | – | – | – | – |
| U47C A52G | 0.000596 ± 8.2e-05 | 3550 ± 750 | 0.000226 ± 4.3e-05 | 0.000465 ± 8.9e-05 | – | 3.5e-05 ± 1.7e-05 | 9.21e-05 ± 1.5e-05 |
| C50A A64G | 1.03e-05 ± 2.3e-07 | 106 ± 36 | – | – | – | – | – |
| U30G C68U | 0.00118 ± 0.00027 | 3820 ± 1500 | 0.000642 ± 0.00015 | 0.000827 ± 0.00013 | – | – | 0.000154 ± 3.1e-05 |
| G32U A42C G51C C67U | 1.49e-05 ± 6.1e-07 | 3620 ± 380 | – | – | – | – | – |
| A14C C50U | 1.4e-05 ± 6.4e-06 | – | – | – | – | – | – |
